# Results as given in US20200283482A1, “BICYCLIC PEPTIDE LIGAND PRR-A CONJUGATES AND USES THEREOF” (BicycleRD Limited, priority 2017, published 2020).
# Starred links: 1 amine or outer side, 2 acyl side, 3 side chain; linkers in the order of their positions; H or OH if unused. Positions of bridges follow the written chain, without caps; N, C: chain ends. Non-standard residues stand in square brackets, D forms with d. Residues, ends and D or L forms follow the SMILES beside them. *: point of attachment. X1 = CCOCc1nc2c(NC(=O)OCCSSC(C)CCC(=O)*)nc3ccccc3c2n1CC(C)(C)O; 1Nal = N[C@@H](Cc1cccc2ccccc12)C(=O)O; TBMB = c1c(C[*:1])cc(C[*:3])cc1C[*:2]; Tle = CC(C)(C)[C@H](N)C(=O)O; βAla = NCCC(=O)O; Sar = CNCC(=O)O
# Experiments:
# [1] = Plasma pharmacokinetics of Bicycle conjugates in CD-1 mice; type: in vivo; details: 3 mg/kg IV, male CD-1 mice
# Method: Male CD-1 mice were dosed with 3 mg/kg of Bicycle Conjugate formulated in 25 mM Histidine HCl, 10% sucrose pH 7 via tail vein injection. Serial bleeding (about 80 μL blood/time point) was performed via submadibular or saphenous vein at each time point. All blood samples were immediately transferred into prechilled microcentrifuge tubes containing 2 μL K2-EDTA (0.5M) as anti-coagulant and placed on wet ice.
# human TLR8 = target: T1, human TLR8 (Homo sapiens, UniProt Q9NR97); assay: Human TLR8 receptor activation, HEK293 reporter cell line; type: cell-based; details: HEK293 reporter cells, 16 hours
# T1 construct: host or cells: HEK293 reporter cell line
# T1 sequence (Q9NR97 27-1041): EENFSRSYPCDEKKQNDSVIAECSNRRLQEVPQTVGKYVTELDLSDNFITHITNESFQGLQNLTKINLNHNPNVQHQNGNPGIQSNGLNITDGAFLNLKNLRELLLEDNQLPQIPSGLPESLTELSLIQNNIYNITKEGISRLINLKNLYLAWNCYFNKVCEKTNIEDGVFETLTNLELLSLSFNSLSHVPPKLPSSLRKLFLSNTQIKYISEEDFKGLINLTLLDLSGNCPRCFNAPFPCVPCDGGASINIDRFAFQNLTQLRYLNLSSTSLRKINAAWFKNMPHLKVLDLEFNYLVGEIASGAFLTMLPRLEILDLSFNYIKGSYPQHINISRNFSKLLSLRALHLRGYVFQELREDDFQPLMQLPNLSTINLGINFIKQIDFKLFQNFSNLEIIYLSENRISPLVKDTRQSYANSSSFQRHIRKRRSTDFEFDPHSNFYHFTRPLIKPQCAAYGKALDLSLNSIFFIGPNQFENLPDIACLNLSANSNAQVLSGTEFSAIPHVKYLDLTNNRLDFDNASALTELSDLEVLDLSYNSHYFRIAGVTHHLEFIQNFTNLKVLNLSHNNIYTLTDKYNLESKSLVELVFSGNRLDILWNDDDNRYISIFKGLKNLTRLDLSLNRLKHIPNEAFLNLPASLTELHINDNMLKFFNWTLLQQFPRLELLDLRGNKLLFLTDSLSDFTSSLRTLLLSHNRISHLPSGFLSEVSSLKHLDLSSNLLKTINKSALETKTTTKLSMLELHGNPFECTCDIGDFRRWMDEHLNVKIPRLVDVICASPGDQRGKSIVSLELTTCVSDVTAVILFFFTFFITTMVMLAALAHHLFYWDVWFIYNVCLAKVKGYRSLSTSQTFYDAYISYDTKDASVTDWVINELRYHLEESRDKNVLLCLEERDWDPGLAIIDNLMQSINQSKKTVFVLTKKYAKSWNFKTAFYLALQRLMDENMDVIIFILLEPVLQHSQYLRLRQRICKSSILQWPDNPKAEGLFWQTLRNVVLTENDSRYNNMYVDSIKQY
# Method: Compounds were tested for their activity to activate human TLR7 and TLR8 receptors using HEK293 reporter cell lines engineered to express respective receptors in accordance to manufacturer's instructions (InvivoGen). […] Incubation was for 16 hours at 37° C. and […]. Absorption at 655 nm was read on […]. Data was fitted using PRISM.
# Plasma stability, rat = type: in vitro ADME; details: pH 7.4; rat plasma, 2 μM, 37° C.; read-out: T1/2 (rat)
smiles,measurement,setting,value
CCOCc1nc2c(NC(=O)OCCSSC(C)CCC(=O)NCCC(=O)N(C)CC(=O)N(C)CC(=O)N(C)CC(=O)N(C)CC(=O)N(C)CC(=O)N(C)CC(=O)N(C)CC(=O)N(C)CC(=O)N(C)CC(=O)N(C)CC(=O)N[C@@H](C)C(=O)N[C@H]3CSCc4cc5cc(c4)CSC[C@H](NC(=O)[C@@H](C)NC(=O)[C@H](Cc4cccc6ccccc46)NC(=O)[C@H](CCC(=O)O)NC(=O)[C@H](CC(N)=O)NC(=O)[C@@H](C)NC3=O)C(=O)N[C@@H](CCC(=O)O)C(=O)N[C@@H](CC(=O)O)C(=O)N[C@@H](Cc3ccccc3)C(=O)N[C@@H](Cc3ccc(O)cc3)C(=O)N[C@@H](CC(=O)O)C(=O)N[C@@H](C(C)(C)C)C(=O)N[C@H](C(N)=O)CSC5)nc3ccccc3c2n1CC(C)(C)O (stereo partly drawn) [I-8] ({X1-βAla}-[Sar][Sar][Sar][Sar][Sar][Sar][Sar][Sar][Sar][Sar]AC[dA]NE[1Nal][dA]CEDFYD[Tle]C-NH2; linker 12-18-25 via TBMB),systemic elimination,[1],rapid systemic elimination
same,hTLR8 activation potency versus naked payload resiquimod,human TLR8,considerably reduced potency or inactivity
same,half-life at 2 μM,"Plasma stability, rat",< 2 h
